# According to patent publication US20230272070A1 (published 2023):
# Changes are numbered by the printed parent chain.
# T1: human CD19 (human, UniProt P15391 20-556)
# T1 construct: whole, on cells; also called huCD19
# T1 sequence (looked up): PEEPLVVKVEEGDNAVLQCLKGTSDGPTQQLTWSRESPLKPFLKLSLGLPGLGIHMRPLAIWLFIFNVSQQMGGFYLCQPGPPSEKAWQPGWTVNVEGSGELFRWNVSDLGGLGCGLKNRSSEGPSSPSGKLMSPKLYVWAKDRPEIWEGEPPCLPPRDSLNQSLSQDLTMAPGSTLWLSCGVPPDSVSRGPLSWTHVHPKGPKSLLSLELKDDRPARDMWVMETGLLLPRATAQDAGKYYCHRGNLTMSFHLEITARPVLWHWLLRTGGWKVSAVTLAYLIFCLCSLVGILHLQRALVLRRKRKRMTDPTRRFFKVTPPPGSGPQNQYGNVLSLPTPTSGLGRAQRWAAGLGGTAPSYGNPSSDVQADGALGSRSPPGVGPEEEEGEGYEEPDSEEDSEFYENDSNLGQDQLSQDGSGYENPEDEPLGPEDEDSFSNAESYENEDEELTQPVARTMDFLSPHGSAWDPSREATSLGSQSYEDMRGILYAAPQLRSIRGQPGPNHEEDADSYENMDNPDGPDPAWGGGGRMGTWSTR
# B1: 10D8 antibody (antibody, human IgG1, V domains shown)
# VH: QVQLVQSGAEVKKPGSSVKVSCKASGGTFSSYAISWVRQAPGQGLEWMGGIIPIFGTANYAQKFQGRVTITADESTSTAYMELSSLRSEDTAVYYCARDRGYDYVWGSYRYGAFDIWGQGTLVTVSS
# VL: QSALTQPASVSGSPGQSITISCTGTSSDVGGYNYVSWYQQHPGKAPKLMIYEVSNRPSGVSNRFSGSKSGNTASLTISGLQAEDEADYYCSSYDVWVPHMVFGGGTKLTVL
# notes: Tested as human IgG1; also called human IgG1 10D8 anti-CD19 antibody
# B2: 9G8 antibody (antibody, human IgG1, V domains shown)
# VH: EVQLVQSGAEVKKPGESLKISCKGSGYSFTSYWIGWVRQMPGKGLEWMGIIYPGDSDTRYSPSFQGQVTISADKSISTAYLQWSSLKASDTAMYYCARGVSGIYNLHGFDIWGQGTLVTVSS
# VL: DIQMTQSPSSLSASVGDRVTITCRASQSISSYLNWYQQKPGKAPKLLIYAASSLQSGVPSRFSGSGSGTDFTLTISSLQPEDFATYYCQQGRFGSPFTFGQGTKVEIK
# notes: also called human IgG1 9G8 anti-CD19 antibody
# B3: 7F11 antibody (antibody, human IgG1, V domains shown)
# VH: B2 VH
# VL: B2 VL with R92M, F93W, G94D, S95N
# notes: Tested as human IgG1; also called human IgG1 7F11 anti-CD19 antibody
# B4: 5F5 antibody (antibody, human IgG1, V domains shown)
# VH: B2 VH with V100I
# VL: B2 VL with G91A, R92S, F93L, G94D, F97L
# notes: Tested as human IgG1; also called human IgG1 5F5 anti-CD19 antibody
# B5: 7F1 antibody (antibody, human IgG1, V domains shown)
# VH: EVQLVQSGAEVKKPGESLKISCKGSGYSFTSYWIGWVRQMPGKGLEWMGIIYPGDSDTRYSPSFQGQVTISADKSISTAYLQWSSLKASDTAMYYCARGDYWTGFAYWGQGTLVTVSS
# VL: QSVLTQPPSVSAAPGQKVTISCSGSSSNIGNNYVSWYQQLPGTAPKLLIYDNNKRPSGIPDRFSGSKSGTSATLGITGLQTGDEADYYCGTWDLGWNSVFGGGTKLTVL
# notes: Tested as human IgG1; also called human IgG1 7F1 anti-CD19 antibody
# B6: F6 antibody (antibody, human IgG1, V domains shown)
# VH: EVQLVQSGAEVKKPGESLKISCKGSGYSFTSYWIGWVRQMPGKGLEWMGIIYPGDSDTRYSPSFQGQVTISADKSISTAYLQWSSLKASDTAMYYCARVWYYDFWSGADAFDIWGQGTLVTVSS
# VL: EIVMTQSPATLSVSPGERATLSCRASQSVSSNLAWYQQKPGQAPRLLIYGASTRATGIPARFSGSGSGTEFTLTISSLQSEDFAVYYCQQGSLEAPQTFGQGTKVEIK
# notes: Tested as human IgG1; also called human IgG1 F6 anti-CD19 antibody
# Target: T1, human CD19
# Experiment: flow cytometry on human versus cynomolgus PBMC; reference: binding to cynomolgus PBMC
# Protocol: The ability of various anti-CD19 antibodies of the disclosure to bind various peripheral blood mononuclear cells (PBMC). Human and cynomolgus PBMC from frozen aliquots in citrate buffer were tested. […] The PBMC were labelled with anti-CD20-PE monoclonal antibody (mAb), anti-CD14-FITC mAb, and anti-CD3-PerCP mAb cross-reactive both to human and cynomolgus species. Cell surface bound hIgG1 were detected with a mouse anti-human IgG Fc-APC mAb. FACS gating was performed with the anti-CD20 mAb for the B lymphocyte population, with the anti-CD3 for the T lymphocyte population and with anti-CD14 for the monocyte population.
row,fold higher binding on human than on cynomolgus PBMC,Binder
1,≤ 10 fold,B1
2,≤ 10 fold,B2
3,≤ 10 fold,B3
4,≤ 10 fold,B4
5,≤ 10 fold,B5
6,≤ 10 fold,B6
